The values below come from the supplement of paper PMC10724198.

± gives the standard deviation of the averaged measurements.

The data set has as its system Saccharomyces cerevisiae. Put plainly: protein stability index of tFT-peptide fusion (C-terminal peptide) (PSI (0-1 scale)); higher = more stable (slower turnover). Conditions: temperature: 30 C. The protocol:
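MPS profiling in S. cerevisiae of the yeast C-terminome library: the last 12 aa of each annotated ORF are fused to the C-terminus of a sfGFP-mCherry timer, after a GGGS linker. Cells are FACS-sorted into 8 mCherry/sfGFP bins and deep-sequenced. PSI runs from 0 (unstable) to 1 (stable); wild type and das1Δ backgrounds, two technical replicates each.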

Where [1] appears, read: genetic background: das1 deletion.

On to GLVATAVKQLPQ [VPS64 C-terminal 12 aa], for which the protein stability index under setting [1] amounted to 0.674 ± 0.0032 and the protein stability index (genetic background: wild type) was found to be 0.662 ± 0.014.

Regarding GNINDDDDGFFD [PLP2 C-terminal 12 aa], the protein stability index reads like this: under setting [1], 0.724 ± 0.021; (genetic background: wild type) 0.698 ± 0.019.

As to GNLMRSSNVLEK [SLO1 C-terminal 12 aa], the protein stability index is 0.685 ± 0.0076 under setting [1] and 0.7 ± 0.016 (genetic background: wild type).

In the case of GNSDGSVEVTEK [RKI1 C-terminal 12 aa], the protein stability index by setting is: under setting [1], 0.6897 ± 0.0053; (genetic background: wild type) 0.705 ± 0.03.

Regarding GPLLDYLSSDED [CWC2 C-terminal 12 aa], the protein stability index by setting is: under setting [1], 0.7139 ± 0.0039; (genetic background: wild type) 0.693 ± 0.0055.

In turn, GQHTKTTGRRRA [RPS18A C-terminal 12 aa] registered a protein stability index under setting [1] of 0.6995 ± 0.0039 and a protein stability index (genetic background: wild type) of 0.686 ± 0.032.

In turn, GQIVIVHYLYDR [YOR218C C-terminal 12 aa] came in with a protein stability index under setting [1] of 0.422 ± 0.018 and a protein stability index (genetic background: wild type) of 0.445 ± 0.051.

GQPPAPFRLRSD [SDS3 C-terminal 12 aa]: the protein stability index under setting [1] amounted to 0.7109 ± 0.00038 and the protein stability index (genetic background: wild type) was determined as 0.709 ± 0.049.

For the sequence GQSLTNTGGGCC [YPT1 C-terminal 12 aa], the protein stability index by setting is: under setting [1], 0.707 ± 0.011; (genetic background: wild type) 0.6389 ± 0.00065.

Consider GRVHGEEDPTKK [HSP12 C-terminal 12 aa], for which the protein stability index worked out at 0.707 ± 0.024 under setting [1] and 0.6953 ± 0.0032 (genetic background: wild type).

As to GSLLLYLLLKIL [INP54 C-terminal 12 aa], the protein stability index by setting is: under setting [1], 0.34 ± 0.018; (genetic background: wild type) 0.119 ± 0.0017.

Regarding GSNAEEDDDLYS [CDC48 C-terminal 12 aa], the protein stability index under setting [1] is 0.7027 ± 0.0045 and the protein stability index (genetic background: wild type) came out at 0.653 ± 0.03.

Take GSPNSLLLNIGR [PHB1 C-terminal 12 aa]: the protein stability index under setting [1] was 0.698 ± 0.015 and the protein stability index (genetic background: wild type) stood at 0.719 ± 0.016.

As to GTKVDDDKKNKS [SPP2 C-terminal 12 aa], the protein stability index by setting is: under setting [1], 0.7041 ± 0.0011; (genetic background: wild type) 0.663 ± 0.03.

With GVFSKSSAELRF [YDL016C C-terminal 12 aa], the protein stability index runs as follows: under setting [1], 0.715 ± 0.013; (genetic background: wild type) 0.706 ± 0.023.

As to GVYMELVKVLFG [YLR177W C-terminal 12 aa], the protein stability index by setting is: under setting [1], 0.607 ± 0.015; (genetic background: wild type) 0.631 ± 0.013.

Turning to GWDLRFEEDPSA [TRP5 C-terminal 12 aa], the protein stability index was determined as 0.731 ± 0.018 under setting [1] and 0.6905 ± 0.0042 (genetic background: wild type).

As for GYIVGVAALLFL [ANS1 C-terminal 12 aa], the protein stability index runs as follows: under setting [1], 0.428 ± 0.011; (genetic background: wild type) 0.4532 ± 0.004.

Turning to GYSPKPISKKEE [ALE1 C-terminal 12 aa], the protein stability index was determined as 0.719 ± 0.011 under setting [1] and 0.648 ± 0.012 (genetic background: wild type).

“GYWEDVFVHLAL [HMLALPHA1 C-terminal 12 aa]” registered a protein stability index under setting [1] of 0.7685 ± 0.0061 and a protein stability index (genetic background: wild type) of 0.757 ± 0.012.

For HDELKYPVDMVI [PDR17 C-terminal 12 aa], the protein stability index runs as follows: under setting [1], 0.705 ± 0.022; (genetic background: wild type) 0.757 ± 0.058.

HELKTHLPLNLI [SMT1 C-terminal 12 aa]: the protein stability index is 0.707 ± 0.018 under setting [1] and 0.697 ± 0.037 (genetic background: wild type).

Regarding HEVQNAEQEVAQ [MAK16 C-terminal 12 aa], the protein stability index is 0.673 ± 0.0074 under setting [1] and 0.681 ± 0.034 (genetic background: wild type).

Turning to HHLTYLPSVPSL [MMO1 C-terminal 12 aa], the protein stability index by setting is: under setting [1], 0.715 ± 0.025; (genetic background: wild type) 0.71 ± 0.053.

For the sequence HHNQIGVPRVEN [GID8 C-terminal 12 aa], the protein stability index reads like this: under setting [1], 0.679 ± 0.013; (genetic background: wild type) 0.674 ± 0.011.

In turn, HKELLAKLEGSD [HNT1 C-terminal 12 aa] registered a protein stability index under setting [1] of 0.688 ± 0.0052 and a protein stability index (genetic background: wild type) of 0.703 ± 0.025.

Consider HNLHSYEKRLYN [IMD4 C-terminal 12 aa], for which the protein stability index was 0.702 ± 0.025 under setting [1] and 0.672 ± 0.013 (genetic background: wild type).

For the sequence HQKTKTLASLSI [NUP49 C-terminal 12 aa], the protein stability index is 0.707 ± 0.014 under setting [1] and 0.631 ± 0.0093 (genetic background: wild type).

Turning to “HQNENMFLTELY [YDL247W-A C-terminal 12 aa]”, the protein stability index came out at 0.7214 ± 0.0031 under setting [1] and 0.707 ± 0.067 (genetic background: wild type).

As for “HTRQGNITQTKY [YKL100W-A C-terminal 12 aa]”, the protein stability index is, setting by setting: under setting [1], 0.698 ± 0.017; (genetic background: wild type) 0.692 ± 0.043.

In the case of HYEAVRANFEGA [PEX6 C-terminal 12 aa], the protein stability index under setting [1] was 0.7023 ± 0.0047 and the protein stability index (genetic background: wild type) turned out to be 0.724 ± 0.012.

For the sequence IADASSLSWNMK [LEM3 C-terminal 12 aa], the protein stability index by setting is: under setting [1], 0.697 ± 0.038; (genetic background: wild type) 0.719 ± 0.011.

Sequence IAEIASAVDKYS [MHT1 C-terminal 12 aa] registered a protein stability index under setting [1] of 0.7183 ± 0.0018 and a protein stability index (genetic background: wild type) of 0.726 ± 0.047.

As for IAIGFGVGITRE [BUD8 C-terminal 12 aa], the protein stability index runs as follows: under setting [1], 0.688 ± 0.035; (genetic background: wild type) 0.739 ± 0.022.

As to IARPFELKYFGR [FCY21 C-terminal 12 aa], the protein stability index came to 0.7199 ± 0.006 under setting [1] and 0.718 ± 0.001 (genetic background: wild type).

IATIENKFDFEI [YCR099C C-terminal 12 aa]: the protein stability index was 0.712 ± 0.013 under setting [1] and 0.694 ± 0.042 (genetic background: wild type).

As for IAVNYCMFGRSY [YHR020W C-terminal 12 aa], the protein stability index under setting [1] was 0.685 ± 0.022 and the protein stability index (genetic background: wild type) was found to be 0.73 ± 0.061.

“ICFREFFDRVET [YJL077W-B C-terminal 12 aa]” gave a protein stability index under setting [1] of 0.714 ± 0.056 and a protein stability index (genetic background: wild type) of 0.6732 ± 0.0058.

Consider IDFLVEEATLNE [YAP3 C-terminal 12 aa], for which the protein stability index reads like this: under setting [1], 0.70065 ± 9.1e-05; (genetic background: wild type) 0.673 ± 0.032.

For IEAATQAFLDSQ [WIP1 C-terminal 12 aa], the protein stability index was 0.698 ± 0.013 under setting [1] and 0.715 ± 0.051 (genetic background: wild type).

IERLFKEEEYYS [TCD1 C-terminal 12 aa]: the protein stability index under setting [1] is 0.70198 ± 0.00056 and the protein stability index (genetic background: wild type) amounted to 0.703 ± 0.011.

With IGIGFGVGIIRE [BUD9 C-terminal 12 aa], the protein stability index reads like this: under setting [1], 0.698 ± 0.052; (genetic background: wild type) 0.686 ± 0.036.

Turning to IIQDNISPRLVV [RRP46 C-terminal 12 aa], the protein stability index reads like this: under setting [1], 0.661 ± 0.034; (genetic background: wild type) 0.665 ± 0.017.

For IIQKETQSAGDK [PZF1 C-terminal 12 aa], the protein stability index by setting is: under setting [1], 0.661 ± 0.013; (genetic background: wild type) 0.678 ± 0.024.

Consider IKGKFYVKILGN [YGR115C C-terminal 12 aa], for which the protein stability index came to 0.635 ± 0.036 under setting [1] and 0.648 ± 0.012 (genetic background: wild type).

With IKIFSERCDGKV [JJJ2 C-terminal 12 aa], the protein stability index by setting is: under setting [1], 0.7066 ± 0.002; (genetic background: wild type) 0.683 ± 0.0069.

As to “IKLLKTHNRMSL [YNL277W-A C-terminal 12 aa]”, the protein stability index by setting is: under setting [1], 0.6846 ± 0.0031; (genetic background: wild type) 0.696 ± 0.036.

As to IKNRLNGLKYRL [YML020W C-terminal 12 aa], the protein stability index turned out to be 0.751 ± 0.0083 under setting [1] and 0.6784 ± 0.0056 (genetic background: wild type).

Consider ILAENEIEVSRG [FET5 C-terminal 12 aa], for which the protein stability index by setting is: under setting [1], 0.7042 ± 0.00013; (genetic background: wild type) 0.705 ± 0.0081.

Take ILERRLNEDHDC [KXD1 C-terminal 12 aa]: the protein stability index by setting is: under setting [1], 0.696 ± 0.025; (genetic background: wild type) 0.6885 ± 0.0056.

In the case of ILILFTSINQRG [YOR366W C-terminal 12 aa], the protein stability index is 0.589 ± 0.037 under setting [1] and 0.605 ± 0.039 (genetic background: wild type).

Consider ILMNEFAFNPKV [LEU3 C-terminal 12 aa], for which the protein stability index by setting is: under setting [1], 0.728 ± 0.027; (genetic background: wild type) 0.708 ± 0.044.

Turning to ILTQGGHIIKKK [MNL2 C-terminal 12 aa], the protein stability index was found to be 0.715 ± 0.017 under setting [1] and 0.6938 ± 0.0012 (genetic background: wild type).

Take IMDKLRAMKNRM [GLO2 C-terminal 12 aa]: the protein stability index reads like this: under setting [1], 0.689 ± 0.053; (genetic background: wild type) 0.663 ± 0.032.

For “IMSTASAQFVGN [YIR018C-A C-terminal 12 aa]”, the protein stability index reads like this: under setting [1], 0.687 ± 0.011; (genetic background: wild type) 0.664 ± 0.0089.

INKTLAWMDEGL [ERG26 C-terminal 12 aa] yielded a protein stability index under setting [1] of 0.694 ± 0.013 and a protein stability index (genetic background: wild type) of 0.728 ± 0.055.

INPMPANFAELS [FAL1 C-terminal 12 aa]: the protein stability index runs as follows: under setting [1], 0.721 ± 0.017; (genetic background: wild type) 0.689 ± 0.049.

Turning to IPSIGKPKTIKI [BUD17 C-terminal 12 aa], the protein stability index was determined as 0.672 ± 0.015 under setting [1] and 0.7017 ± 0.0033 (genetic background: wild type).

On to IPTSFFFFNSIV [YKL123W C-terminal 12 aa], for which the protein stability index is 0.734 ± 0.034 under setting [1] and 0.305 ± 0.0033 (genetic background: wild type).

With “IQFFSQCTSCTV [YLR286W-A C-terminal 12 aa]”, the protein stability index is, setting by setting: under setting [1], 0.507 ± 0.0085; (genetic background: wild type) 0.5256 ± 0.004.

For IQYYEEILRRGL [SPP1 C-terminal 12 aa], the protein stability index reads like this: under setting [1], 0.683 ± 0.024; (genetic background: wild type) 0.677 ± 0.027.

Sequence IRCVFMFRTNAK [YLR296W C-terminal 12 aa] returned a protein stability index under setting [1] of 0.578 ± 0.03 and a protein stability index (genetic background: wild type) of 0.595 ± 0.018.

IRDAKFCDKHED [BOR1 C-terminal 12 aa] showed a protein stability index under setting [1] of 0.6971 ± 0.0014 and a protein stability index (genetic background: wild type) of 0.671 ± 0.035.

In the case of IRLKRRDFMKNL [RRT12 C-terminal 12 aa], the protein stability index is 0.689 ± 0.0069 under setting [1] and 0.382 ± 0.0049 (genetic background: wild type).

As to ISKKYYSRYDKK [OM14 C-terminal 12 aa], the protein stability index came to 0.683 ± 0.037 under setting [1] and 0.616 ± 0.025 (genetic background: wild type).

On to ISTLKAIYNKMD [PEX9 C-terminal 12 aa], for which the protein stability index stood at 0.69065 ± 0.0004 under setting [1] and 0.672 ± 0.009 (genetic background: wild type).

Regarding ISWLEKMKKFFH [MAM33 C-terminal 12 aa], the protein stability index was determined as 0.7163 ± 0.0048 under setting [1] and 0.693 ± 0.009 (genetic background: wild type).
